{"source": "patent US20260224762A1", "about": "“RADIONUCLIDE LABELLED PEPTIDE CONJUGATE FOR SITE-SPECIFIC UPAR-TARGETING” (CURASIGHT A/S, priority 2023, published 2026)", "key": {"[1]": {"system": "subcutaneous U87 MG tumors", "test": "in vivo", "design": "species or system female NMRI nude mice", "details": "mouse", "procedure": "(§1) The biodistribution of 67Cu-DOTA-AE105 was evaluated in female NMRI nude mice bearing subcutaneous U87 MG tumors. The U87 MG tumor cell line is a human glioblastoma cell line. Animals were stratified into four groups (A, B, C, D) based on tumor volume and body weight on study day-2. Animals in group A were injected with 26.4±0.4 MBq, animals in group B received 55.1±0.2 MBq, animals in group C received 54.3±0.5 MBq and animals in group D received 55.2±0.2 MBq (mean±SEM). The biodistribution was evaluated using SPECT/CT imaging, 2H, 24H, 48H, 96H and 168H after injection. Furthermore, conventional ex vivo biodistribution was evaluated after final imaging timepoints 96H and 168H.\n(§2) The results are shown in FIG. 1 as percentage injected dose per gram (% ID/g) and are corrected for radioactive decay. The data in FIG. 1 are derived from the in vivo SPECT/CT imaging."}, "in vivo [2]": {"test": "in vivo", "design": "species or system female NMRI nude mice", "details": "female, NMRI nude, mouse, iv, total radioactivity", "procedure": "as §1, §2"}, "[3]": {"system": "subcutaneous U87 MG tumors", "test": "in vivo", "design": "species or system female NMRI nude mice", "details": "mouse", "procedure": "(§3) The biodistribution of 225Ac-DOTA-AE105 was evaluated in female NMRI nude mice bearing subcutaneous U87 MG tumors. The U87 MG tumor cell line is a human glioblastoma cell line. Animals were stratified into two groups (A and B) based on tumor volume and body weight on study day-2. Animals in group A were injected with 30 kBq of 225Ac-DOTA-AE105 having a specific activity of 30 kBq/nmol, animals in group B received a thousand-fold dose of DOTA-AE105 (cold construct) immediately before receiving 30 kBq of 225Ac-DOTA-AE105 having a specific activity of 30 kBq/nmol. The biodistribution was evaluated using conventional ex vivo biodistribution 1 hour (1H) after injection. The results are shown in FIG. 10 as percentage injected dose per gram (% ID/g) and are corrected for radioactive decay.", "remark": "listed apart in the source"}, "in vivo [4]": {"test": "in vivo", "design": "species or system female NMRI nude mice", "details": "female, NMRI nude, mouse, 30 kBq, total radioactivity", "procedure": "as §3"}, "tumor": {"system": "tumor", "details": "in vivo; cited from earlier work"}, "[5]": {"design": "species or system female NMRI nude mice", "details": "mouse, in vivo, 50 MBq", "procedure": "The tumor binding and retention of 177Lu-DOTA-AE105 was evaluated in female NMRI nude mice bearing subcutaneous U87 MG tumors.\nAnimals were dosed with approximately 50 MBq 177Lu-DOTA-AE105 at study day 0. Tumor binding and retention of 177Lu-DOTA-AE105 was evaluated by SPECT/CT imaging at 0.5H, 2H and 24H after injection. The results for tumor binding and retention of 177Lu-DOTA-AE105 and the data for 67Cu-DOTA-AE105 from example 2 (table 5b) are summarized in table 6 below."}, "[6]": {"system": "subcutaneous U87 MG tumors", "test": "Treatment efficacy of 177Lu-DOTA-AE105 in glioblastoma xenograft mice", "type": "in vivo, female NMRI nude mice", "details": "study day 18; group B 92.1 MBq p=0.32; group C three doses of about 30 MBq p=0.84", "procedure": "Furthermore, the efficacy of 177Lu-DOTA-AE105 was tested in female NMRI nude mice bearing subcutaneous U87 MG tumors.\nAnimals were stratified into three groups (A, B, and C) based on tumor volume and body weight on study day 0. The mean inclusion volume was […] (range 15.0-339.0 mm^3), while the inclusion weight was 23.6±0.4 g (range […]).\nAnimals were dosed with either vehicle (group A) or 177Lu-DOTA-AE105 (group B, and C) at different activity levels on study day 0. Animals in group B received 92.1±1.7 MBq, animals in group C received 32.9±0.4 MBq. At study day 4 animals in group C received an additional dosing with 26.7±0.2 MBq and at study day 8 animals in group C were dosed with 30.7±0.2 MBq. Doses are calculated by retracting residual dose from the activity measured before injection. No decay correction has been applied.\nTumor volume and body weight was monitored twice a week after the first dosing. The efficacy was evaluated over a period of 5 weeks after first dosing. Each of the treatment groups were compared to the vehicle control group A.\nDifferences in tumor volume were evaluated at the latest timepoint where minimum 50% of animals were alive within each of the compared groups."}, "uPAR": {"biological_target": "uPAR (Homo sapiens, UniProt Q03405)", "sequence (Q03405 23-305)": "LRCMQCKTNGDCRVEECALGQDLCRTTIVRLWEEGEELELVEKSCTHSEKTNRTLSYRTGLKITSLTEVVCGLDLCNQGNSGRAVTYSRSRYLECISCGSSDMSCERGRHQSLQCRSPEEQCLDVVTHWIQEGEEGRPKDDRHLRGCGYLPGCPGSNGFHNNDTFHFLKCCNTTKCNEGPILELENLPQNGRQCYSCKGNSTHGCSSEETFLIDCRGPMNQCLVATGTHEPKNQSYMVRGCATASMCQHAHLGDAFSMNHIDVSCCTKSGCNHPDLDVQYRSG", "test": "uPAR binding by Surface Plasmon Resonance (SPR)", "details": "for SPR K(off) / SPR K(on): 18 degrees Celsius, HEPES pH 7.4", "procedure": "Characterization of the binding properties of lead (Pb) labelled DOTA-AE105 to its target i.e. uPAR was measured by Surface Plasmon Resonance (SPR) and expressed as the binding constant (KD), which is a measure of affinity of the conjugate towards its target.\nCharacterizing the interaction between a target protein (in this case uPAR) and a ligand by SPR is a well-known method for the skilled person.\nThe target protein uPAR was captured, via a protein tag, onto a sensor chip and the test compound (Pb2+-DOTA-AE105 and Cu2+-DOTA-AE105 respectively) were dissolved in running buffer (10 mM HEPES buffer at pH 7.4, 150 mM NaCl, […]+0.05% Tween-20) and prepared in 5-point concentration series with three-fold dilution with top concentration around 500 nM of the test compound. The assay was conducted at 18 degrees Celsius."}}, "note": "Entries after “also recorded” stand apart in the source; their conditions may differ. Like-named read-outs stand apart in the source and are kept apart here.", "data": [{"smiles": "CC(C)C[C@H](NC(=O)[C@H](Cc1ccc(O)cc1)NC(=O)C(CCCNC(=N)N)NC(=O)C(CO)NC(=O)C(Cc1ccccc1)NC(=O)[C@H](CC1CCCCC1)NC(=O)[C@H](CC(=O)O)NC(=O)CN1CCN(CC(=O)O)CCN(CC(=O)O)CCN(CC(=O)O)CC1)C(=O)N[C@@H](Cc1c[nH]c2ccccc12)C(=O)N[C@@H](CO)C(N)=O", "note": "(single isomer, unassigned) [67Cu-DOTA-AE105, metal not drawn]", "values": [{"measurement": "Tumor binding, times higher compared to 177Lu-DOTA-AE105", "setting": "[1]", "value": "approximately 50 times"}, {"measurement": "Uptake in other organs such as heart, kidney, and muscle", "setting": "[1]", "value": "low uptake"}, {"measurement": "tissue uptake at 2 h", "setting": "in vivo [2]; 30 MBq", "value": "5.31 ± 0.73", "unit": "%ID/g"}, {"measurement": "tissue uptake at 24 h", "setting": "in vivo [2]; 30 MBq", "value": "5.02 ± 0.08", "unit": "%ID/g"}, {"measurement": "tissue uptake at 48 h", "setting": "in vivo [2]; 30 MBq", "value": "3.44 ± 0.11", "unit": "%ID/g"}, {"measurement": "tissue uptake at 96 h", "setting": "in vivo [2]; 30 MBq", "value": "1.74 ± 0.22", "unit": "%ID/g"}, {"measurement": "tissue uptake at 168 h", "setting": "in vivo [2]; 30 MBq", "value": "0.88 ± 0.15", "unit": "%ID/g"}, {"measurement": "tissue uptake at 2 h", "setting": "in vivo [2]; 60 MBq", "value": "6.61 ± 1.11", "unit": "%ID/g"}, {"measurement": "tissue uptake at 24 h", "setting": "in vivo [2]; 60 MBq", "value": "6.47 ± 0.5", "unit": "%ID/g"}, {"measurement": "tissue uptake at 48 h", "setting": "in vivo [2]; 60 MBq", "value": "4.24 ± 0.14", "unit": "%ID/g"}, {"measurement": "tissue uptake at 96 h", "setting": "in vivo [2]; 60 MBq", "value": "1.7 ± 0.07", "unit": "%ID/g"}, {"measurement": "tissue uptake at 168 h", "setting": "in vivo [2]; 60 MBq", "value": "0.64 ± 0.05", "unit": "%ID/g"}]}, {"smiles": "CC(C)C[C@H](NC(=O)[C@H](Cc1ccc(O)cc1)NC(=O)C(CCCNC(=N)N)NC(=O)C(CO)NC(=O)C(Cc1ccccc1)NC(=O)[C@H](CC1CCCCC1)NC(=O)[C@H](CC(=O)O)NC(=O)CN1CCN(CC(=O)O)CCN(CC(=O)O)CCN(CC(=O)O)CC1)C(=O)N[C@@H](Cc1c[nH]c2ccccc12)C(=O)N[C@@H](CO)C(N)=O", "note": "(single isomer, unassigned) [225Ac-DOTA-AE105, metal not drawn]", "values": [{"measurement": "Tumor binding, times higher compared to 177Lu-DOTA-AE105", "setting": "[3]", "value": "approximately 5 times"}, {"measurement": "tissue uptake at 1 h", "setting": "in vivo [4]", "value": 3, "unit": "%ID/g"}]}, {"smiles": "CC(C)C[C@H](NC(=O)[C@H](Cc1ccc(O)cc1)NC(=O)[C@@H](CCCNC(=N)N)NC(=O)[C@@H](CO)NC(=O)[C@H](Cc1ccccc1)NC(=O)[C@H](CC1CCCCC1)NC(=O)[C@H](CC(=O)O)NC(=O)CN1CCN(CC(=O)O)CCN(CC(=O)O)CCN(CC(=O)O)CC1)C(=O)N[C@@H](Cc1c[nH]c2ccccc12)C(=O)N[C@@H](CO)C(N)=O", "note": "[177Lu-DOTA-AE105, metal not drawn]", "values": [{"measurement": "Tumor binding and tumor retention compared to the peptide alone", "setting": "tumor", "value": "vastly decreased"}, {"measurement": "tissue uptake at 0.5 h", "setting": "[5]", "value": "0.749 ± 0.166", "unit": "%ID/g"}, {"measurement": "tissue uptake at 2 h", "setting": "[5]", "value": "0.128 ± 0.011", "unit": "%ID/g"}, {"measurement": "tissue uptake at 24 h", "setting": "[5]", "value": "0.098 ± 0.001", "unit": "%ID/g"}, {"measurement": "Tumor volume compared to vehicle control group / therapeutic effect", "setting": "[6]", "value": "no significant difference; also recorded: did not show any therapeutical effect"}]}, {"smiles": "CC(C)C[C@H](NC(=O)[C@H](Cc1ccc(O)cc1)NC(=O)[C@@H](CCCNC(=N)N)NC(=O)[C@@H](CO)NC(=O)[C@H](Cc1ccccc1)NC(=O)[C@H](CC1CCCCC1)NC(=O)[C@@H](CC(=O)O)NC(=O)CN1CCN(CC(=O)O)CCN(CC(=O)O)CCN(CC(=O)O)CC1)C(=O)N[C@@H](Cc1c[nH]c2ccccc12)C(=O)N[C@@H](CO)C(N)=O", "note": "[Cu2+-DOTA-AE105]", "values": [{"measurement": "SPR K(off)", "setting": "uPAR", "value": 19.95}, {"measurement": "SPR K(on)", "setting": "uPAR", "value": 0.110}]}, {"smiles": "CC(C)C[C@H](NC(=O)[C@H](Cc1ccc(O)cc1)NC(=O)[C@@H](CCCNC(=N)N)NC(=O)[C@@H](CO)NC(=O)[C@H](Cc1ccccc1)NC(=O)[C@H](CC1CCCCC1)NC(=O)[C@@H](CC(=O)O)NC(=O)CN1CCN(CC(=O)O)CCN(CC(=O)O)CCN(CC(=O)O)CC1)C(=O)N[C@@H](Cc1c[nH]c2ccccc12)C(=O)N[C@@H](CO)C(N)=O", "note": "[Pb2+-DOTA-AE105]", "values": [{"measurement": "SPR K(off)", "setting": "uPAR", "value": 1.78}, {"measurement": "SPR K(on)", "setting": "uPAR", "value": 0.102}, {"measurement": "Affinity fold higher than Cu2+-DOTA-AE105", "setting": "uPAR; ratio of KD", "value": "more than 10 fold"}]}]}
